Target: recombinant SARS-CoV-2 S1 protein expressed from insect (Sf9) cells (S1-His, SinoBiological, Cat. No. 40591-V08B1) (SARS-CoV-2) (UniProt P0DTC2)
Assay: ELISA, coated S1 from Sf9 cells, HRP-conjugated lectin 10 ug/mL

Which mean fold increase of OD450 does the source give for “Salvia sclarea lectin (SSA; Cat. No: H-3501-1)” here?
Its mean fold increase of OD450 is 3.97 fold.

Reference: patent publication US20210085781A1
